This note sets out measurements from publication PMC9549385.

This assay deals with human delta-opioid receptor (human) (UniProt P41143).

Regarding [D-Ala2, D-Leu5]-enkephalin (peptide), the Emax of ERK1/2 phosphorylation (% of SNC80 maximum, In-Cell Western) in CHO-K1-hDOPr cells, 5 min stimulation is 36 % SNC80.
